Measured values reported in patent US20190055322A1 (Ablynx, published 2019).

B1: Nanobody 285 (13F07-40GS-2B02) (VHH)
chain: EVQLVESGGGLVQAGGSLRLSCAASGNTFSTNPMYWYRQAEGKQRELVASISSRGITNYADSVRGRFSISRDNTKDTVYLQMNSLKPEDTAVYYCRLASLSSGTVYWGKGTLVTVSSGGGGSGGGGSGGGGSGGGGSGGGGSGGGGSGGGGSGGGGSEVQLVESGGGLVQPGDSLRLSCAASGRILSINNMVWYRQAPGKQRELVAHITSSGSTGYADSVKGRFTISRDNAKNTFYLQMTNLNPEDTAVYYCNCWVSSDSNAPLKNYWGQGTLVTVSS
B2: Nanobody 277 (5H01-40GS-11B09) (VHH)
chain: EVQLVESGGGLVQPGGSLRLSCAASGSTLDYYAIGWFRQAPGKEREGVSCTSNSGSTYYGGSVKGRFTASRDNAKNTVYLQMNSLRPEDTAVYYCVATIGCATLGGTLDVQRYYYRGQGTLVTVSSGGGGSGGGGSGGGGSGGGGSGGGGSGGGGSGGGGSGGGGSEVQLVESGGGLVQAGGSLRLSCAASRLTFNHYNMGWFRQAPGKERERVAEVTWSGDKIYYVDSVKGRFTISRDNTPNPVYLYLQMNSLKPEDTAVYYCATAPRGLPYANGYWGQGTLVTVSS
B3: Nanobody 319 (13F07-40GS-6B05) (VHH)
chain: EVQLVESGGGLVQAGGSLRLSCAASGNTFSTNPMYWYRQAEGKQRELVASISSRGITNYADSVRGRFSISRDNTKDTVYLQMNSLKPEDTAVYYCRLASLSSGTVYWGKGTLVTVSSGGGGSGGGGSGGGGSGGGGSGGGGSGGGGSGGGGSGGGGSEVQLVESGGGLVQPGGSLRLSCAASGSIFSINTMGWYRQAPGKQRELVSTITSNLVPHYADSVQGRFTISRDNARNTVYLQMNSLKPQDTAHYYCNAWARSSGATPYTNYWGQGTLVTVSS
B4: Nanobody 271 (7C10-40GS-14E10) (VHH)
chain: EVQLVESGGGLVQAGGSLRLSCTASGRTLSSYTMGWFRQAPGTEREFVAAMTRSGFNTYYADSVKGRFTISRDSTENTMALQMSSLKPEDTAVYYCTAGRGLTSYRADYWGQGTLVTVSSGGGGSGGGGSGGGGSGGGGSGGGGSGGGGSGGGGSGGGGSEVQLVESGGGLVQPGGSLRLSCAASGRIFSINTMGWYRQAPGKQRELVAGVTINAITNYADSVKGRFTISRDNAKNTVWLQMNSLKPEDTAVYYCHAWARSSGSAPYSQNWGQGTLVTVSS
B5: Nanobody 335 (5H01-40GS-1E11) (VHH)
chain: EVQLVESGGGLVQPGGSLRLSCAASGSTLDYYAIGWFRQAPGKEREGVSCTSNSGSTYYGGSVKGRFTASRDNAKNTVYLQMNSLRPEDTAVYYCVATIGCATLGGTLDVQRYYYRGQGTLVTVSSGGGGSGGGGSGGGGSGGGGSGGGGSGGGGSGGGGSGGGGSEVQLVESGGGLVQPGGSLRLSCAASGSTRSVNPMAWFRQAPGRQREWVATISRSGYATYADSVKGRFTISGDNAKSSVYLQMNSLKPEDTAVYYCVTGTYWGQGTLVTVSS
B6: Nanobody 275 (2G09-40GS-5H01) (VHH)
chain: EVQLVESGGGLVQPGGSLRLSCAASGSFGDNYELYAMTWFRQAPGERRDFVASVTGDGSTSYADSVKDRFTISRDNAKKLMYLQMNSLKPEDTAVYYCRLLNYWGQGTLVTVSSGGGGSGGGGSGGGGSGGGGSGGGGSGGGGSGGGGSGGGGSEVQLVESGGGLVQPGGSLRLSCAASGSTLDYYAIGWFRQAPGKEREGVSCTSNSGSTYYGGSVKGRFTASRDNAKNTVYLQMNSLRPEDTAVYYCVATIGCATLGGTLDVQRYYYRGQGTLVTVSS
B7: Nanobody 6B05 (VHH)
VHH: EVQLVESGGGLVQPGGSLRLSCAASGSIFSINTMGWYRQAPGKQRELVSTITSNLVPHYADSVQGRFTISRDNARNTVYLQMNSLKPQDTAHYYCNAWARSSGATPYTNYWGQGTLVTVSS
notes: also called 06B05
B8: Nanobody 13F07 (VHH)
VHH: EVQLVESGGGLVQAGGSLRLSCAASGNTFSTNPMYWYRQAEGKQRELVASISSRGITNYADSVRGRFSISRDNTKDTVYLQMNSLKPEDTAVYYCRLASLSSGTVYWGKGTLVTVSS
B9: Nanobody 1E11 (VHH)
VHH: EVQLVESGGGLVQPGGSLRLSCAASGSTRSVNPMAWFRQAPGRQREWVATISRSGYATYADSVKGRFTISGDNAKSSVYLQMNSLKPEDTAVYYCVTGTYWGQGTLVTVSS
notes: also called 01E11
B10: Nanobody 2B10 (VHH)
VHH: EVQLVESGGGLVQPGGSLRLSCAASGSIFSINNMGWYRQAPGKQRELVTVVTSNLITTYADSVKGRFTISRDNAKNTVYLQMNSLKPEDTAVYYCNAWARSVGSVPYSQFWGQGTLVTVSS
notes: also called 02B10
B11: Nanobody 5H01 (VHH)
VHH: EVQLVESGGGLVQPGGSLRLSCAASGSTLDYYAIGWFRQAPGKEREGVSCTSNSGSTYYGGSVKGRFTASRDNAKNTVYLQMNSLRPEDTAVYYCVATIGCATLGGTLDVQRYYYRGQGTQVTVSS
notes: also called 05H01
B12: Nanobody 14E10 (VHH)
VHH: EVQLVESGGGLVQPGGSLRLSCAASGRIFSINTMGWYRQAPGKQRELVAGVTINAITNYADSVKGRFTISRDNAKNTVWLQMNSLKPEDTAVYYCHAWARSSGSAPYSQNWGQGTQVTVSS
B13: Fab 13.37 (Fab, V domains shown)
VH: QVQLVESGGGVVQPGRSLRLSCAASGFTFSSYPLHWVRQAPGKGLEWVSFISYDGSEKYYASSVKGRFTISRDNSENTLYLQMNSLRPEDTAVYYCARNRGDIYYDFTYAMDIWGQGTMVTVSS
VL: DIQMTQSPSSLSASVGDRVTITCRASQSISRWVAWYQQRPGKAPNLLIYDASSLKSGVPSRFSGSGSGTEFTLTISSLQPEDIATYYCQQFWGTPYTFGQGTKLEIKR

Molecular target: T1, PcrV of P. aeruginosa strain PA103 (on TTSS-induced bacteria) (Pseudomonas aeruginosa strain PA103)
Test: cell-based or functional assay
Throughout, for cytotox assay (% inhibition), P3X63, PA103: test concentration or dose not given here.

Binder | Ratio (IC50 Fab 13.37/IC50 Nanobody), A549 cytotoxicity
B1 | 1 fold
B2 | 8 fold
B3 | 2 fold
B4 | 1 fold
B5 | 1 fold
B6 | 1 fold

Molecular target: T1, PcrV of P. aeruginosa strain PA103 (on …)
Test: cell-based or functional assay
Remark: another data set of the same source

Binder | cytotox assay (% inhibition), P3X63, PA103
B7 | 32%
B8 | 13%
B9 | 33%
B10 | 38%
B11 | 76%
B12 | 22%

Molecular target: T1, PcrV of P. aeruginosa strain PA103 (on …)
Test: cell-based or functional assay
Remark: another data set of the same source

Binder | % inhibition, P3X63 cytotoxicity assay, MOI 1.5 | % inhibition, P3X63 cytotoxicity assay, MOI 3 | % inhibition, P3X63 cytotoxicity assay, MOI 4 | IC50 (nM), P3X63 cytotoxicity assay, MOI 1.5 | IC50 (nM), P3X63 cytotoxicity assay, MOI 3 | IC50 (nM), P3X63 cytotoxicity assay, MOI 4
B13 | 100% | 100% | 100% | 1 nM | 1 nM | 8 nM
B7 | – | 100% | – | – | 435 nM | –
B8 | > 20% | – | – | 35600 nM | – | –
B9 | – | – | 58% | – | – | 23 nM
B10 | – | – | 100% | – | – | 647 nM
B11 | – | – | 100% | – | – | 7 nM
B12 | – | 100% | – | – | > 3000 nM | –

Molecular target: T2, recombinant PcrV protein (rPcrV), strain PAO1, amino acid residues 1-294, C-terminal His6 (Pseudomonas aeruginosa strain PAO1)
Test: SPR ProteOn, periplasmic extract on immobilised rPcrV

Binder | koff
B7 | 0.00018 s⁻¹
B8 | 0.00092 s⁻¹
B9 | 0.00035 s⁻¹
B10 | 0.00018 s⁻¹
B11 | 4.9e-05 s⁻¹
B12 | 0.0006 s⁻¹

Molecular target: GST-PcrV (strain PAO1, amino acid residues 1-294) (Pseudomonas aeruginosa strain PAO1)
Test: SPR Biacore T100, GST-PcrV immobilised

Binder | Kd | koff | kon
B10 | 0.5 nM | 0.00025 s⁻¹ | 510000 M⁻¹ s⁻¹
B11 | 1 nM | 0.00014 s⁻¹ | 160000 M⁻¹ s⁻¹

Molecular target: T1, PcrV of P. aeruginosa strain PA103 (on …)
Test: cell-based or functional assay
Remark: another data set of the same source

Binder | % inhibition in P3X63 cytotoxicity assay, extract 1/150
B1 | 59%
B2 | 85%
B3 | 46%
B4 | 43%
B5 | 46%
B6 | 66%

Molecular target: T2, recombinant PcrV protein (rPcrV), …
Test: ELISA, periplasmic extract on biotinylated rPcrV

Binder | binding ELISA (OD 450 nm)
B7 | 2.55 OD 450 nm
B9 | 2.56 OD 450 nm
B10 | 2.57 OD 450 nm
B11 | 2.69 OD 450 nm

Molecular target: T1, PcrV of P. aeruginosa strain PA103 (on …)
Test: cell-based or functional assay
Remark: another data set of the same source

Binder | Efficacy (%), P3X63 cytotoxicity, MOI 12 | IC50 value (M), P3X63 cytotoxicity, MOI 12
B13 | 100% | 5.4e-10 M
B1 | 100% | 6.1e-11 M
B2 | 100% | 1.3e-11 M
B3 | 100% | 8.1e-11 M
B4 | 100% | 5.9e-10 M
B5 | 100% | 6.4e-11 M
B6 | 100% | 3.7e-09 M

Molecular target: Full length PcrV (aa 1-294), C-terminal c-myc and His6 tags (Pseudomonas aeruginosa strain PAO1)
Test: ELISA, binder coated

Binder | binding result
B13 | binds
B7 | binds
B8 | binds
B9 | binds
B10 | binds
B11 | binds
B12 | binds

Molecular target: T3, PcrV fragment (aa 144-257), C-terminal c-myc and His6 tags (Pseudomonas aeruginosa)
T3 construct: also called small PcrV fragment
Test: ELISA, binder coated; NB = binding signal = background signal

Binder | binding result
B8 | no binding
B12 | no binding
